Test results reported in article PMC3467059 (Nucleic Acids Research, 2012).

What was measured:
[1] = target: PspF1–275 F85Y (E. coli, UniProt P37344 1-275, F85Y); assay: native gel or EMSA
[2] = target: PspF1–275 T86S (E. coli, UniProt P37344 1-275, T86S); assay: native gel or EMSA

QLQQAIRL (peptide, UniProt P06223 18-25, looked up) [σ54RI peptide fragment, residues 18–25 (Patch 1)]: binds [1].

LQQELQQ (peptide, UniProt P06223 33-39, looked up) [σ54RI peptide fragment, residues 33–39 (Patch 2)]: binds [1]; binds [2].
